Data published in paper PMC9807522 (Cancer Science, 2022).

What was measured:
[1] = biological target: recombinant human VEGFR2 protein (Octet) (Homo sapiens, UniProt P35968); assay: BLI
[2] = biological target: VEGFR2 on VEGFR2 overexpressing 293FT cells (Homo sapiens (assumed), UniProt P35968); assay: cell-based or functional assay
[3] = biological target: recombinant rhesus macaque VEGFR2‐His protein (Macaca mulatta, UniProt F7E313); assay: ELISA

VEGFR2 on VEGFR2 overexpressing 293FT cells, sequence (P35968 20-1356): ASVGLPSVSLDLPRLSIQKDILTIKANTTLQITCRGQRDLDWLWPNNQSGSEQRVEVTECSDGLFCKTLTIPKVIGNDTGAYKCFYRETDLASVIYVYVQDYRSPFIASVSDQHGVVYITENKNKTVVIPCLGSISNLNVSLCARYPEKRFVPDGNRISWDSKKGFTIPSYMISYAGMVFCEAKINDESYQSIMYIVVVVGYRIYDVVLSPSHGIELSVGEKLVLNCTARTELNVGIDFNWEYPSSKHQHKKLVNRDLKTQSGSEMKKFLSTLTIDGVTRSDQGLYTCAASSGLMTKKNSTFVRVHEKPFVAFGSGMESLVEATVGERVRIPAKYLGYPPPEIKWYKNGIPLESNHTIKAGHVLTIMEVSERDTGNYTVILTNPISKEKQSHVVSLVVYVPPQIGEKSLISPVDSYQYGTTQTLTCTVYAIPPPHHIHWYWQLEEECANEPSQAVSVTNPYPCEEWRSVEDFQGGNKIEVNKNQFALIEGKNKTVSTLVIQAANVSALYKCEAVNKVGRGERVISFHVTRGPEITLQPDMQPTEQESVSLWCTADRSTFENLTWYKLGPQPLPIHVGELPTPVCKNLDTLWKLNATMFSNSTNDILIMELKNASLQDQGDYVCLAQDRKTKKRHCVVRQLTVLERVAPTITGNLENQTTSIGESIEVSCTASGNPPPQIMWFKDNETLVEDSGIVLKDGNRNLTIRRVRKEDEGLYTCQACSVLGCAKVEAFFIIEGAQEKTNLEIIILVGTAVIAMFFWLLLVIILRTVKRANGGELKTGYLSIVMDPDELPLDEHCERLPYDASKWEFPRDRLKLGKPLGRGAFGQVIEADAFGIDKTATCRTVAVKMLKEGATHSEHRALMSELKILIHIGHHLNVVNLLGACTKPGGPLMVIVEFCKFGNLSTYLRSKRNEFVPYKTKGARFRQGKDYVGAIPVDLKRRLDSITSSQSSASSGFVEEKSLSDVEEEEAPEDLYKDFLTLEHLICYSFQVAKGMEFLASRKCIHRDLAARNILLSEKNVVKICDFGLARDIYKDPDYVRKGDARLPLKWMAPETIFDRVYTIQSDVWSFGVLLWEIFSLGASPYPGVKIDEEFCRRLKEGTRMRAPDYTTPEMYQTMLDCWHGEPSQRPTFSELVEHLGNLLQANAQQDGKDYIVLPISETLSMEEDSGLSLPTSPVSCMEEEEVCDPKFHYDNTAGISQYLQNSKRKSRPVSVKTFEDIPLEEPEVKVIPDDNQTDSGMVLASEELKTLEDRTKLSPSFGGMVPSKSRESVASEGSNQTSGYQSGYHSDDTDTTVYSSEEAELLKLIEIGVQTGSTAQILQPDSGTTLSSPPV
recombinant human VEGFR2 protein (Octet), sequence (P35968 20-1356): as above

- Kd [1]: 0.0458 nM
- EC50 of neutralisation of HUVEC proliferation induced by human VEGF-C [2]: 0.0874 µg/mL
- EC50 of neutralisation of HUVEC proliferation induced by human VEGF-C+VEGF-D [2]: 0.086 µg/mL
- binding result [3]: binds
B1: ramucirumab (antibody, V domains shown)
VH: EVQLVQSGGGLVKPGGSLRLSCAASGFTFSSYSMNWVRQAPGKGLEWVSSISSSSSYIYYADSVKGRFTISRDNAKNSLYLQMNSLRAEDTAVYYCARVTDAFDIWGQGTMVTVSS
VL: DIQMTQSPSSVSASIGDRVTITCRASQGIDNWLGWYQQKPGKAPKLLIYDASNLDTGVPSRFSGSGSGTYFTLTISSLQAEDFAVYFCQQAKAFPPTFGGGTKVDIK
